# Measurements taken from the DeepSol protein solubility set.
# Experiment: soluble on expression in E. coli; label from the status in PepcDB or PDB records
row,Sequence,soluble on expression in E. coli
1,MVHGKLKEAAEVTGSVSLEALEEVQVGENIEVGVGIDELVNAEAFAYDFTLNYDENAFEYVEAISDDGVFVNAKKIEDGKVRVLVSSLTGEPLPAKEVLAKVVLRAEAKTEGSNLSVTNSSVGDGEGLVHEIAGTEKTVNIIEGTSPEIVVNPVRDFKASEINKKNVTVTWTEPETTEGLEGYILYKDGKKVAEIGKDETSYTFKKLNRHTIYNFKIAAKYSNGEVSSKESLTLRTAR,soluble
2,MGHHHHHHSHMGGLPMISASLQQRKTRTRRSMLFVPGANAAMVSNSFIYPADALMFDLEDSVALREKDTARRMVYHALQHPLYRDIETIVRVNALDSEWGVNDLEAVVRGGADVVRLPKTDTAQDVLDIEKEILRIEKACGREPGSTGLLAAIESPLGITRAVEIAHASERLIGIALGAEDYVRNLRTERSPEGTELLFARCSILQAARSAGIQAFDTVYSDANNEAGFLQEAAHIKQLGFDGKSLINPRQIDLLHNLYAPTQKEVDHARRVVEAAEAAAREGLGVVSLNGKMVDGPVIDRARLVLSRAELSGIREE,not soluble
3,GPSASLLVQNGTLNVGDAIVVGNTYGRIRAMVNDLGQRIKTAGPSTPVEITGINDVPQAGDRFV,soluble
4,MGSDKIHHHHHHMNRIQLSQLAVLATVAETSSFRKAAEELGIAPSAVSHAVSALEASLGVRLLARTTRSVAPTEEGRQLLQKLAPALADIGTALETLAENKSNPAGPLRITMPALAAEDLIVPRLGDFLGLYPDIQLELITNDQFEDIVEKGFDAGLRLGEHLETDMVAVKASGPISGTIIGAPSYFERHPLPVHPHDLMEHRCIRRRFSSGRIYRWELEKHGKQIAVDVPDVLTLADQRLIRLAALKGVGLAFVFDQRVDKDIREGRLIRVLEDWCPPFDGFYIYYPTRRQMRPALRAFVDFFRHRS,not soluble
5,MSLENGYTPKLMYERLSKRLGSLFTFFSEPAFENLLPPPPPEQYRRPLTLVVTLDDFLIHSNWDTQHGWRTGKRPGLDYFLGYLSQYYEIVVFSSNLQMYSDKTVNKLDPYHAYISYALFREACRYKDGKLIKDLSLLNRDLGKTVMIDVDEDSAALQPENSIIVKKWEGQPDEYLISLIPFLEYLATQPVKDVRPILNSYKDKSNEGHHHHHH,soluble
6,MLVEDSGHHLPESADIENALDLLLKAQLERAFGPELAEHFWAARQPRTLDERLAFIRKCWIGVFKDSPLSTFGLERLEQLERLCRSKRRGRELSAAEHHQFAEELARLWEQVQRLLPRAAPETSYASSASAGGVHSGDAHTPATLSDAESAHAAPEAMRIEAPATSARSASGCMARVSSDVAAAATNVSLVVLDGENIAWAHGQNAVFSPKGIAIAVDFFRKRGYRCVVFLPDYRRKRADLPTVSASDALVFVPAGEYDDTFALGYAVGHDAILVTNDLLQDHLDQFYPDEGEAREALRKWLGSHRCSFTFVGDEFLPNPHFFLP,not soluble
7,MGSDKIHHHHHHMAGEPRLGRTGPRVSRVGLGLWQFGSPMWGGKALSADVLARGLSIAVEEGINLLDTAEVYGMGSSERMLGEALKRLNAREDFVIVSKVAGFRSTAGDIVKGARGIAGRLSSAPDVILHHWPPPVYSRLCSVVRGLEQAVNEGLASYYGFSNYGEDLLGDALSCTRRLEPVADQILYNLAYRTPEQRLIPLLHQHGMTPIAWSPLAKGALAGFKGEPTRAQAGDPVFRTALEDTGLQEVLESVARRLGASKASVALAWVAYKGAVPIVGWRRPERVREAAAAARLKLSEEDVALLDEASKRYVTLWGSSYSPPGLRRIRLIPGALQRLAIRLWGGI,not soluble
8,MMTDEERIELQQNNPLHGLKLETLLQELVDFYGWEILDTAMRLNCFNTNPSVASSVKYLKKTEWAREKLENFYLYRFKRMPRASNLEYDKPPRARTFPHGLEPKEPMELTVDSILKSQAKAASAHKARTSNRGGNYRRLEHHHHHH,soluble
9,MMEQKQEIHATVSINNVQYEVIKNFRDGFSEEAFKERYAEILNKYDYIVGDWGYEQLRLRGFFDDSNQRATYDTKISTLTEYLYEYCNFGCAHFVLRKVKK,not soluble
10,MPTKVLVNATYLHSYFREWVKGNIWIHGDRIVYAGERLPDRIDESCEIIDCRGYVLVPGYIEPHVHPFQLYNPHSFARYAAMYGTTTLLNDNLFFLLQLEHHHHHH,not soluble
11,GAMAPGGEMTFSIPTHKCGLVIGRGGENVKAINQQTGAFVEISRQLPPNGDPNFKLFIIRGSPQQIDHAKQLIEEKIEGPLCPVGPGPGGPGPAGPMGPFNPGPFNQ,soluble
12,SNADDYTAGKEYVELSSPVPVSQPGKIEVVELFWYGCPHCYAFEPTIVPWSEKLPADVHFVRLPALFGGIWNVHGQMFLTLESMGVEHDVHNAVFEAIHKEHKKLATPEEMADFLAGKGVDKEKFLSTYNSFAIKGQMEKAKKLAMAYQVTGVPTMVVNGKYRFDIGSAGGPEETLKLADYLIEKERAAAKK,soluble
13,HDNYADLSDTELTTLLRRYNIPHGPVVGSTRRLYEKKIFEYETQRRR,soluble
14,MGSDKIHHHHHHMDILTGKCSDRFMAHVLKRRDQEAVRWYVLTLPTAGGGRDRISPSKGLDAELSRRERRGEALFEYFSPSYVEARKVGGKMVNTRQPLLYNYVFVHASEDEIFRLKRTLPLYNFLPRVSSGGRSYFPYLSDREMDTLRWVAASYSNELPVYVPDSGRLLKGDRVRITSGPFTDMEAEVVVQPGGGHKDVMVRILDCLWVPLFEVRAGEYELIELNTGGKHVYTHLDNDRLSEGLHDALGRYHASGVVVDEDACLAREVLRGYASLRAETDVIRCKLYSLLLPAYLLLGESDEFDRLRSTMRSMLPVIKAGQSRALLLVTLYGCTDSSLYQRMAHELVDPWQEEASPKKSKTVLIRRLRDYDRWLKHNE,not soluble
15,MPGWRSICAVMGLTFTGCVFIQGSARAQDGNKATAVLELYTSQGCKSCPPADKNFAKYADDPNVLALSFHVNYWDYMGWRDTLATQDNTDRQNSYRNAFHAKMIYTPQAIINGAVEANGRNGAAINAKIAANKLDVPVSIQQLNDGRLSIDIGAGKKPRDPVHVVLFYFRDSATIPITEGENAGKAITYRNTVSDIDTIGMWDGKPLKIELPASELKRKDVTGCAVVLQETRSDNSLGPMHGAAMFKQKRPVSFLEHHHHHH,not soluble
16,MLKMIAFDFDGTLAPTIPMVIDVFRRSVAPYVEHELTKQAIVQTFGLNEVGMVKAVAGQRWPVALAAFYQEYARAHLRVSAPYPGIVTLLELLQQQGVALALITGKAAKSCQISLDVTGLTSYFPTRLYGSECQPNKADNLRQLMRTKSLDAAELFYVGDTRSDFEAADTAGVQCLTAAWDPNQPIVEAGDQIVFTSVEQLWAYLQRRLGHGLVRPMSHKPR,not soluble
17,SGRHERDAFDTLFDHAPDKLNVVKKTLITFVNKHLNKLNLEVTELETQFADGVYLVLLMGLLEGYFVPLHSFFLTPDSFEQKVLNVSFAFELMQDGGLEKPKPRPEDIVNCDLKSTLRVLYNLFTKYRNVE,soluble
18,MSPLPPPPDIQHEFDKNQDPHETNLALRRLYPQIRERENERHIPRRWDLRQASSYLDISQSGYGVTFKKNVTVAEDKDPAGVVRADAFIQQCIGVYYFEVRILEGHSGCMGIGLSKKDCDLNRMPGWDPGCFGYHGDDGNFFLASGVGQAYGPKFGPGDVIGCGIDTFYHYVFFTKNGKHLGIAHTSPTALKELYPTVGFKTRGEKLVANFGVKPFEFDFEAYRQHLMNKKIHLLENIKMPENFGKQMNRIVSSFLGTTGALATLQKFEETTKPEVPIDHEYYAQRKEITDMILKAARGAEIHEKIEKYFPGLVEDDANVHLLILCLRYIDLANTLHEPPNCFTNSTTGRSPSPTEIRARPPKLLKGSQCKTTKRTREAQRRSANSQVHTPPPVRLTNAKATEELYLKDAKIERFYIDQDTEEEMLHIDGVSMPTKMFVELEKSGQYRKLNYILKMGREIMKVAGEMRGNIAPEARKVVEIATSMVSSPERPAKHPLSFALRRFIANSVVDMICYYVHHKREGKSTKRPRGTSTGEIPGSSSLRMFSELRNLFTGWKGLHIDYSTNDKKMAGIHFVRKMILEEPNFNEKEIIYTDEPMELAHERPDPPPREIIRQQRNEFQF,not soluble
